Reference: patent publication US20260116951A1 (DUCENTIS BIOTHERAPEUTICS, published 2026)

Experiments:
Human CD200R1L = target: T1, Human CD200R1L (human, UniProt Q6Q8B3 24-239, limits assumed); experiment: SPR (BIAcore)
T1 construct: nothing is said of the reagent
T1 sequence (looked up): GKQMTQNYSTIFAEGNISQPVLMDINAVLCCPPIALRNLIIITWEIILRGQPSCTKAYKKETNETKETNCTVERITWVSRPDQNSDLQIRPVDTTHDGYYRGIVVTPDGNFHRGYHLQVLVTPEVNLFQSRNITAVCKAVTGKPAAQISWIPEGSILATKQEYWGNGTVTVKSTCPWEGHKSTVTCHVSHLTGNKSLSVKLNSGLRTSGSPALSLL

[1] = target: T2, Mouse CD200R protein (Creative Biomart CD200R1-3280M) (mouse, UniProt Q9ES57 26-238); experiment: SPR (BIAcore)
T2 construct: also called Murine CD200R1; murine CD200R
T2 sequence (looked up): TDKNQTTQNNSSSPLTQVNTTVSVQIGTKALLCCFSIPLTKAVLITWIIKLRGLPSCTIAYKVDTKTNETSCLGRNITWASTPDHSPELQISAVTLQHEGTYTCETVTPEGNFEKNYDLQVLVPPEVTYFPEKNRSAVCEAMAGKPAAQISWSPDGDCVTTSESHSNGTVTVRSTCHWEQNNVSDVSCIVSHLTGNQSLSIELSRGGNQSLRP

[2] = target: T3, Recombinant Cyno CD200R, His-tagged (Creative Biomart CD200R1-3483C) (cynomolgus monkey); experiment: SPR (BIAcore T200), CD200-Fc captured on anti-human Fc, cyno CD200R flowed, 25 C, 1:1 fit
T3 construct: Bought; also called cynomolgus CD200R1; cynomolgus CD200R
Procedure: (§1) The experiments were performed on a GE Healthcare BIAcore T200. Human, cynomolgus and mouse CD200R proteins were purchased from Creative Biomart (CD200R1-320H, CD200R1-3483C, CD200R1-3280M). All measurements were performed in duplicate.
For human CD200 constructs: anti-human Fc (GE Healthcare) was covalently immobilized on a BIAcore CM5 sensor chip (Cytiva, BR100530) by amine coupling using a Cytiva kit (BR100839) following the manufacturer's instructions, targeting immobilization of 8,000-11,000 RU. CD200-Fc proteins were diluted to 0.5 μg/mL to 4 μg/mL in running Buffer (1×HBS-EP+pH7.4 (Cytiva BR100669), HEPES Buffered Saline pH 7.4 containing 3 mM EDTA and 0.05% v/v Surfactant P20) and flowed for 25 to 100 seconds at 10 μL/min over the immobilized Anti-Human IgG Fc, with a stabilization time of 60 seconds. […]
For mouse CD200 constructs, muCD200R-Fc (Creative Biomart CD200R1-458M) diluted to 1 μg/mL in running buffer was flowed over the immobilized Anti-Human IgG Fc, with CD200 monomers serially diluted and flowed over captured CD200R. […] Data analysis: experimental sensorgrams were analyzed in BIAevaluation software (GE Healthcare). […] Closeness of fit was determined by algorithms provided by the manufacturer in the BIAevaluation software, and data accepted if the Chi² value was less than 10% of Rₘₐₓ, and the U value was less than or equal to 15.

[3] = target: T4, Recombinant Human CD200R, His-tagged (Creative Biomart CD200R1-320H) (human, UniProt Q8TD46 27-266); experiment: SPR (BIAcore T200), CD200-Fc captured on anti-human Fc, CD200R flowed, 25 C, 1:1 fit, mean of two runs
T4 construct: Bought; also called human CD200 receptor; not shown: His tag
T4 sequence (looked up): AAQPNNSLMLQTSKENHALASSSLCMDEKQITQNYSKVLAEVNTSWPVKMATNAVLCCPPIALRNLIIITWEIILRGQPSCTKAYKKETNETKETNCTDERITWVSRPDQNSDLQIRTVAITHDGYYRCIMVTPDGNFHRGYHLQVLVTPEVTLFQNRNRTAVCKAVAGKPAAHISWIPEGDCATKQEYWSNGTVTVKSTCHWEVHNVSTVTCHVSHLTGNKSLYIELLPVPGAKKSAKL
Procedure: as §1
(§2) For human CD200 constructs: anti-human Fc (GE Healthcare) was covalently immobilized on a BIAcore CM5 sensor chip (Cytiva, BR100530) by amine coupling using a Cytiva kit (BR100839) following the manufacturer's instructions, targeting immobilization of 8,000-11,000 RU. CD200-Fc proteins were diluted to 0.5 μg/mL to 4 μg/mL in running Buffer (1×HBS-EP+pH7.4 (Cytiva BR100669), HEPES Buffered Saline pH 7.4 containing 3 mM EDTA and 0.05% v/v Surfactant P20) and flowed for 25 to 100 seconds at 10 μL/min over the immobilized Anti-Human IgG Fc, with a stabilization time of 60 seconds. Between 35 and 250 RUs of CD200-Fc were captured, with higher RUs used for cynomolgus CD200R binding experiments. […] Analysis temperature was 25° C. This was followed by regeneration of the surface with 30-90 second pulse of 3M MgCl₂ flowed at […] flow rate followed by stabilization of the surface with 60 second flow of running buffer.
For mouse CD200 constructs, muCD200R-Fc (Creative Biomart CD200R1-458M) diluted to 1 μg/mL in running buffer was flowed over the immobilized Anti-Human IgG Fc, with CD200 monomers serially diluted and flowed over captured CD200R. Other details were as above. Data analysis: experimental sensorgrams were analyzed in BIAevaluation software (GE Healthcare). The curves obtained were fitted to 1:1 Langmuir binding model by setting Rmax and RI as local parameters. Rate equations using standard parameters (e.g. ligand concentration, time) were used for iterative curve fitting. Closeness of fit was determined by algorithms provided by the manufacturer in the BIAevaluation software, and data accepted if the Chi² value was less than 10% of Rₘₐₓ, and the U value was less than or equal to 15.

[4] = target: T4, Recombinant Human CD200R, His-tagged …; experiment: SPR, CD200R flowed over immobilized CD200-Fc, 25 C, 1:1 fit, mean of 2 experiments with standard deviation
Procedure: as §2
Curves obtained were fitted to 1:1 Langmuir binding model by setting Rmax and RI as local parameters. Rate equations using standard parameters (e.g. ligand concentration, time) were used for iterative curve fitting. […] Means of 2 experiments carried out on the same day are shown with standard deviation. Residue numbering for CD200 proteins refers to the pre-protein, containing a signal peptide which is cleaved during insertion into the endoplasmic reticulum.

[5] = target: T5, Human CD200R, full length, on transduced U937 cells (U937-CD200R) (human, UniProt Q8TD46 25-348); experiment: Flow cytometry on U937-CD200R cells, 4 hours incubation at 37 C, fluorescent anti-human secondary antibody
T5 construct: whole, on cells; also called U937-CD200R cells; CD200R-expressing U937 cells
T5 sequence (looked up): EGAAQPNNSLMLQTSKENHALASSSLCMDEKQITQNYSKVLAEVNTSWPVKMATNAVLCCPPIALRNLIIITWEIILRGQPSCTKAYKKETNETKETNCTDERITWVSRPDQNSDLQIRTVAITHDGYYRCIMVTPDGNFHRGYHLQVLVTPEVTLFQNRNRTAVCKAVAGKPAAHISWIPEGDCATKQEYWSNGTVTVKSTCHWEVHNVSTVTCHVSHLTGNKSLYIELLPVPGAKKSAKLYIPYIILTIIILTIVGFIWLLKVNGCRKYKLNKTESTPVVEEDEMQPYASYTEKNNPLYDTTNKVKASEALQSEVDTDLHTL
Procedure: Construct treatment (50 μL) was performed starting from 10 μg/mL with 3-fold dilutions up to 10 concentrations with FACS buffer and incubated for 1-hour, 4-hours and 24-hours at 37° C. At the end of each time point, cells were collected and washed. 10 μg/mL of anti-human secondary antibody was added and incubated for 30 minutes at 4° C. Cells were washed post incubation and stained to check viability (1 μL dye per million cells per mL 1×PBS) for 20 minutes at 4° C. Cells were washed and fixed with Fixation buffer (100 μL per test) at 4° C. for 20 minutes. Post incubation, cells were washed and the pellet was re-suspended in FACS buffer (100 μL per test) for data acquisition on flow cytometer.

B1: DS-118 (mutated human CD200-Fc fusion protein, K130Y, I131Y, IgG4 S228P Fc) (Fc fusion)
chain: QVQVVTQDEREQLYTPASLKCSLQNAQEALIVTWQKKKAVSPENMVTFSENHGVVIQPAYKDKINITQLGLQNSTITFWNITLEDEGCYMCLFNTFGFGYYSGTACLTVYVQPIVSLHYKFSEDHLNITCSATARPAPMVFWKVPRSGIENSTVTLSHPNGTTSVTSILHIKDPKNQVGKEVICQVLHLGTVTDFKQTVNKGPPCPPCPAPEFLGGPSVFLFPPKPKDTLMISRTPEVTCVVVDVSQEDPEVQFNWYVDGVEVHNAKTKPREEQFNSTYRVVSVLTVLHQDWLNGKEYKCKVSNKGLPSSIEKTISKAKGQPREPQVYTLPPSQEEMTKNQVSLTCLVKGFYPSDIAVEWESNGQPENNYKTTPPVLDSDGSFFLYSRLTVDKSRWQEGNVFSCSVMHEALHNHYTQKSLSLSLGK
notes: also called mutated CD200-Fc; mutant CD200-Fc
In the case of B1, the binding result (Human CD200R1L) is reported as “no binding”, the binding result [1] is reported as “no binding” and the t½ [2] is reported as 18.2 s. The Kd [3] was 1.3 nM, the koff [3] was 0.000304 s⁻¹ and the kon [3] was 231000 M⁻¹ s⁻¹. For the same binder, the Kd [4] was 1.3 nM and the “EC50 (read off the curve)” value [5] was about 0.9 µg/mL.
